Substitutions are numbered along the chain they refer to.

These results are taken from patent publication US6521748B2, “Polynucleotide encoding a mutant Rhodotorula glutinis tyrosine ammonia lyase polypeptide” (E. I. du Pont de Nemours and Company, priority 1999, dated 2003).

Data set [1] is described as follows: Whole cell TAL/PAL activity ratio (follow-up assay after high throughput screen). The data set is classed as cell-based, E. coli. The protocol: The following assay was performed to confirm that fully active mutant PAL enzyme was produced in BL21(DE3) E. coli cells. E. coli cells were grown in LB medium overnight. One mL of cell culture was pelleted and resuspended in 1 mL of 50 mM Tris-HCl buffer (pH 8.5) containing 0.5 mM tyrosine (for TAL activity measurement) or phenylalanine (for PAL activity measurement). The reaction mixture was incubated on the shaker at 37 C. for 1 hr. The reaction mixture was filtrated using 0.2 μm pore size filter (Millipore, Bedford, Mass.), and injected into HPLC (Hewlett-Packard Company, Palo Alto, Calif.). TAL or PAL activity was determined by measuring the concentration of the resulting PHCA or cinnamate. […]
5,000 mutant colonies were picked from agarose plates and screened by high throughput assay (Example 20). The initial hits were further investigated by a follow-up assay to confirm screening results. The TAL and PAL activities were measured using the whole cell assay, described in Example 17, and then ratio of TAL/PAL activities was calculated. The following table summarizes results of the follow-up assay for four mutants with altered TAL/PAL ratios:
A total of 5,000 mutant colonies from these three libraries were screened by high throughput assay (Example 20). Initial hits were further investigated by a follow-up HPLC assay to confirm the screening results as described in Example 21. One mutant with improved TAL/PAL ratio was found (Table 19).

Data set [2] can be described thus: Whole cell TAL activity assay (HPLC) in BL21(DE3) E. coli cells. The data set is classed as cell-based. To be noted: for TAL Activity (%): 0.5 mM tyrosine, 37 C, 1 hr. The protocol:
The following assay was performed to confirm that fully active mutant PAL enzyme was produced in BL21(DE3) E. coli cells. E. coli cells were grown in LB medium overnight. One mL of cell culture was pelleted and resuspended in 1 mL of 50 mM Tris-HCl buffer (pH 8.5) containing 0.5 mM tyrosine (for TAL activity measurement) or phenylalanine (for PAL activity measurement). The reaction mixture was incubated on the shaker at 37 C. for 1 hr. The reaction mixture was filtrated using 0.2 μm pore size filter (Millipore, Bedford, Mass.), and injected into HPLC (Hewlett-Packard Company, Palo Alto, Calif.). TAL or PAL activity was determined by measuring the concentration of the resulting PHCA or cinnamate.
The truncation mutants were analyzed by measuring TAL activity using the whole cell assay described in Example 17. Table 15 summarizes the results:
The C-terminal truncation mutant was analyzed by measuring TAL and PAL activities using the whole cell assay described in Example 17, and pET17b-Km-6 was used as positive control.

Data set [3] in a line: Enzyme kinetics of purified wild type and mutant PAL, TAL activity (spectrophotometric). Particulars: tyrosine as substrate. Format: biochemical. The protocol:
(§1) The PAL or TAL activity of the purified enzymes were measured using a spectrophotometer according to Abell et al., “Phenylalanine Ammonia-lyase from Yeast Rhodotorula glutinis,” Methods Enzymol. 142:242-248 (1987). The spectrophotometric assay for PAL determination was initiated by the addition of the enzyme to a solution containing 1.0 mM L-phenylalanine and 50 mM Tris-HCl (pH 8.5). The reaction was then followed by monitoring the absorbance of the product, cinnamic acid, at 290 nm using a molar extinction coefficient of 9000 cm^−1. The assay was run over a 5 min period using an amount of enzyme that produced absorbance changes in the range of 0.0075 to 0.018/min. One unit of activity indicated deamination of 1.0 μmol of phenylalanine to cinnamic acid per minute. The TAL activity was similarly measured using tyrosine in the reaction solution. The absorbance of the para-hydroxycinnamic acid produced was followed at 315 nm and the activity was determined using an extinction coefficient of 10,000 cm^−1 for PHCA. One unit of activity indicated deamination of 1.0 μmol of tyrosine to para-hydroxycinnamic acid per minute.
(§2) A detailed enzyme kinetics analysis using the yeast wild type and the purified mutant PAL enzyme and tyrosine or phenylalanine as substrate, was carried out. The PAL and TAL activities were measured spectrophotometrically as described in the General Methods and the KM and Vmax were determined from its Lineweaver-Burke plot. The kcat was calculated from Vmax assuming the presence of four active sites in the active tetramer.

A short description of data set [4]: Whole cell PAL/TAL activity of colonies from the selection plates. Format: cell-based, E. coli. To be noted: whole cell assay. The protocol:
An HPLC assay was developed for measuring the levels of cinnamic acid and PHCA formed by the whole cells. In a typical assay, following centrifugation of a culture grown in the medium of choice, 20-1000 μL of the supernatant was acidified with phosphoric acid, filtered through a 0.2 or 0.45 micron filter and analyzed by the HPLC to determine the concentration of PHCA and cinnamic acid in the growth medium. Alternatively, following centrifugation, the cells were resuspended in 100 mM Tris-HCl (pH 8.5) containing 1.0 mM tyrosine or 1.0 mM phenylalanine and incubated at room temperature for 1.0-16 h. A filtered aliquot (20-1000 μL) of this suspension was then analyzed.
The colonies that had appeared on the selection plates were analyzed for their PAL/TAL activity using the whole cell assay described in the general methods. […] Genetic analysis for the EP18Km-6 mutant was carried out. The plasmid DNA was purified from the mutant cells, and then re-transformed into E. coli. […] To better characterize the mutants, the following analyses were carried out.

The nature of data set [5]: Enzyme kinetics of purified wild type and mutant PAL, PAL activity (spectrophotometric). Format: biochemical. Particulars: phenylalanine as substrate. The protocol:
as §1, §2

The nature of data set [6]: Ratio of TAL to PAL catalytic efficiency of purified enzymes. The data set is classed as biochemical. The protocol: as §2
The catalytic efficiency, defined as kcat/KM, was calculated for both the wild type and mutant enzyme. The ratio of the TAL catalytic efficiency versus the PAL of the wild type enzyme was 0.5 while that of the mutant enzymes had increased to 1.7 (see Table 11).

The conditions of data set [7]: Hanson and Havir 1981; cited from earlier work.
Setting [8] is: from Vmax assuming four active sites.

B1: EP18Km-6: mutant R. glutinis PAL enzyme having enhanced TAL activity, Ile540Thr, SEQ ID NO:10 (protein)
chain: MAPSLDSISHSFANGVASAKQAVNGASTNLAVAGSHLPTTQVTQVDIVEKMLAAPTDSTLELDGYSLNLGDVVSAARKGRPVRVKDSDEIRSKIDKSVEFLRSQLSMSVYGVTTGFGGSADTRTEDAISLQKALLEHQLCGVLPSSFDSFRLGRGLENSLPLEVVRGAMTIRVNSLTRGHSAVRLVVLEALTNFLNHGITPIVPLRGTISASGDLSPLSYIAAAISGHPDSKVHVVHEGKEKILYAREAMALFNLEPVVLGPKEGLGLVNGTAVSASMATLALHDAHMLSLLSQSLTAMTVEAMVGHAGSFHPFLHDVTRPHPTQIEVAGNIRKLLEGSRFAVHHEEEVKVKDDEGILRQDRYPLRTSPQWLGPLVSDLIHAHAVLTIEAGQSTTDNPLIDVENKTSHHGGNFQAAAVANTMEKTRLGLAQIGKLNFTQLTEMLNAGMNRGLPSCLAAEDPSLSYHCKGLDIAAAAYTSELGHLANPVTTHVQPAEMANQAVNSLALISARRTTESNDVLSLLLATHLYCVLQAIDLRATEFEFKKQFGPAIVSLIDQHFGSAMTGSNLRDELVEKVNKTLAKRLEQTNSYDLVPRWHDAFSFAAGTVVEVLSSTSLSLAAVNAWKVAAAESAISLTRQVRETFWSAASTSSPALSYLSPRTQILYAFVREELGVKARRGDVFLGKQEVTIGSNVSKIYEAIKSGRINNVLLKMLA
By Km is commonly meant the concentration of substrate that gives half-maximal velocity. What is called kcat is the number of substrate molecules converted per active site and unit of time at saturation. For B1, the TAL/PAL ratio in data set [1] (regional mutants amino acid No. 120-280, Table 17) was found to be 1.7; in data set [1] (summary table of mutants) it was 1.7. Also, the “TAL/PAL activity of enzyme expressed from pET17b” value in data set [2] (BL21(DE3) E. coli cells) was “fully active”. The “TAL Activity (%)” value in data set [2] (C-terminal truncation mutant in pET17b) and in data set [2] (N-terminus truncation mutants in pET17b) was 100% throughout. The values for the Km in data set [3] (Lineweaver-Burke plot) and in data set [5] (Lineweaver-Burke plot) were 50 µM and 333 µM, respectively. In addition, the “kcat” value was 0.63 s⁻¹ in data set [3] (setting [8]) and 2.45 s⁻¹ in data set [5] (setting [8]). Further, the “TAL activity ratio versus wild type cell” value in data set [4] is on record as “enhanced TAL activity ratio”. Also, the “TAL/PAL ratio (catalytic efficiency)” value in data set [6] turned out to be 1.7.

B2: Rhodosporidium: PAL/TAL enzyme of the yeast Rhodosporidium, literature value (protein)
chain: B1 chain with T540I
Turning to B2, the “ratio of TAL catalytic activity to PAL catalytic activity” value in data set [7] is recorded as “approximately 0.58”.
